The source of these data is PMC5758563, “Structural analysis of mtEXO mitochondrial RNA degradosome reveals tight coupling of nuclease and helicase components”.

The target of this series is Cg-Dss1 (full-length, wild type) (Candida glabrata, UniProt Q6FJE0 24-923). Nature of the series: footprinting (RNase I protection); 2 mM ATP, 3 mM MgCl2; RNase I footprinting: 100 nM RNA, 150 nM protein, 20 mM Tris pH 7.4, 50 mM NaCl, 3 mM MgCl2, with or without 2 mM ATP, 30 C; EDTA added before RNase I. Crystal. As to conditions: protein: recombinant; tags: His6-MBP removed by TEV; label: 32P body label.

B1: L1 RNA (79 nt) (structured_RNA)
RNA: GGAACUCCAUAUAUGGGCUAUGAACUAAUGACCCCGUAAUUGAUUACUAUUAGCCCGGGCAAUGUGCACAUGUACCCUA
Take B1: the binding result was “binds”.
